The values that follow come from patent publication US20250145716A1 (RAKUTEN MEDICAL, published 2025).

Read-outs that look alike come from different tables or passages of the source.

Assay [1] concerns the target T1, PD-L1-His (Acro Cat PDL-H5229) (human, UniProt Q9NZQ7 19-238).
T1 construct: also called human PD-L1 (SPR analyte); not shown: His tag
In words: SPR (Biacore 4000) as in Example 3, conjugate captured, PD-L1-His analyte, 37° C. The procedure:
(§1) The binding affinities of the generated antibodies to human PD-L1 were determined by surface plasmon resonance. […] PD-L1-His (Acro Cat PDL-H5229) was tested for binding in a 3-fold titration series up to 100 nM. Data were collected in HBS-P (pH 7.4) at 37° C. and 25° C.
(§2) The binding affinities of the generated anti-PD-L1 conjugates were determined by surface plasmon resonance, as described in Example 3.

Assay [2] concerns the target T2, human PD-L1 expressed on cells (human, UniProt Q9NZQ7 19-290). Nature of the assay: cell-based or functional assay.
For assay [3], the target named is T3, 6xHis-tagged cyPD-L1 (cynomolgus monkey, UniProt Q9NZQ7 19-238 (human entry)).
T3 construct: The assay text says only '6xHis-tagged cyPD-L1'; also called cynomolgus PD-L1; not shown: 6xHis tag
T3 sequence (Q9NZQ7 other isoform, or with tags, fused parts or gaps): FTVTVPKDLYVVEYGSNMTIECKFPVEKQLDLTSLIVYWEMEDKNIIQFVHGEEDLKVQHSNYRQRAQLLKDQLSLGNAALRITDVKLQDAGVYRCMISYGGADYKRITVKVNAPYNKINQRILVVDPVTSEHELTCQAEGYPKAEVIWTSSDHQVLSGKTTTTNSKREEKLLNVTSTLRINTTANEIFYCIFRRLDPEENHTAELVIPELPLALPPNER
In words: ELISA, plate-coated 6xHis cyPD-L1, OD 450 nm. How it is done: (§3) Hybridoma supernatants were tested for binding to huPD-L1, cyPD-L1, and muPD-L1 by ELISA. Briefly, 30 μL 6xHis-tagged huPD-L1, cyPD-L1, or muPD-L1 (1 μg/mL in PBS) were immobilized in wells of a 96-well assay plate overnight at 4° C. After washing and blocking steps, 30 μL of antibody supernatant were added to the plate and incubated at room temperature for 1 hr. Bound human antibody was detected using horseradish peroxidase (HRP)-conjugated goat anti-human Fc (Invitrogen Cat. No. 109-035-097; diluted 1:5000) or goat anti-mouse Fc HRP (Invitrogen Cat. No. 115-035-071) as a control. Bound antibody was detected with 1-Step Ultra™ TMB-ELISA Substrate (ThermoFisher Scientific Cat. No. 34029). When the reaction was complete the reaction was stopped, and the plate was read at 450 nm.
(In general: An ELISA detects its analyte on a solid surface through an enzyme-linked reagent.)

Assay [4] concerns the target T2, human PD-L1 expressed on cells. Nature of the assay: flow cytometry, PD-L1-expressing CHO cells, MFI (FITC). How it is done:
Wild-type (wt) Chinese hamster ovary (CHO) cells (ATCC) and CHO cells engineered to express huPD-L1 (BPS Bioscience) were seeded at 200,000 cells in 50 μL FACS buffer (PBS containing 1% FBS and 5 mM EDTA) per well of a 96-well plate. Cell viability was assessed by adding 50 μL 2×Zombie Violet (BioLegend). Dead cell controls were also prepared and 2×Zombie violet was added. After incubating 20-30 minutes at room temperature, protected from light, 150 μL FACS buffer were added to each well. The plates were centrifuged, and the supernatant was aspirated. […] The plates were incubated 30 minutes on ice, protected from light. 150 μL FACS buffer were then added to each well and the plate was centrifuged. The supernatant was removed and the cells were washed three times in 200 μL FACS buffer. […] The cells were incubated 30 minutes on ice, protected from light. 150 μL FACS buffer were then added to each well and the plate was centrifuged. Supernatant was removed and the cells were washed twice with 200 μL FACS buffer. The cells were then resuspended in FACS buffer and analyzed by CytoFLEX using the appropriate channels. After gating for whole, single, live cells, the MFI in the APC channel (or FITC channel for human control samples) was normalized to the signal from hybridoma media alone (or isotype control for human control). MFI fold over media alone was determined for each clone supernatant tested.

Assay [5] has the same target. Nature of the assay: cell-based or functional assay. The source holds these as a separate data set.
Assay [6] addresses T4, 6xHis-tagged huPD-L1 (human, UniProt Q9NZQ7 19-238).
T4 construct: also called human PD-L1 (RD Systems 9049-B7); extracellular domain of human PD-L1 fused to a His tag; not shown: 6xHis tag
Nature of the assay: ELISA, plate-coated 6xHis huPD-L1, OD 450 nm. The procedure:
as §3

Assay [7] has as its target T1, PD-L1-His (Acro Cat PDL-H5229). Nature of the assay: SPR (Biacore 4000) as in Example 3, conjugate captured, PD-L1-His analyte, 25° C. How it is done: as §1, §2
In general terms: In SPR one partner is held on a chip, and binding of the other changes the refractive index at the surface.

Assay [8] deals with T4, 6xHis-tagged huPD-L1. Nature of the assay: ELISA, plate-coated human PD-L1 (1 µg/mL), OD 450 nm, B7 ligand specificity panel. The procedure: as §3
(§4) Briefly, wells of a 96-well plate (Corning 3690) were incubated with 30 μL human PD-L1 (RD Systems 9049-B7), human PD-L2 (RD Systems 9075-PL), human B7-1/CD80 (RD Systems 9050-B1), human B7-2/CD86 (RD Systems 9090-B2), human B7-H2 (RD Systems 8206-B7), or human B7-H3 (RD Systems 1949-B3), at a concentration of 1 μg/mL in PBS, overnight at 4C, to coat the wells with ligand. After washing and blocking steps, 30 μL of antibody at 8 concentrations ranging from 1 ng/mL to 3 mg/mL were added to the plate and incubated at room temperature for 1 hr. Bound human antibody was detected as described above.

Assay [9] has as its target T3, 6xHis-tagged cyPD-L1. Nature of the assay: ELISA, plate-coated 6xHis cyPD-L1, OD 450 nm. How it is done: as §3
(§5) Anti-PD-L1 antibodies, described in Example 1A and manufactured substantially as described in Example 1B, were tested for to huPD-L1 and cyPD-L1 by ELISA substantially as described in Example 1A, using 12 dilutions of antibody ranging from 1 ng/ml to 3 mg/mL.
This is another data set of the same source.

In assay [10] the target is T4, 6xHis-tagged huPD-L1. In words: ELISA, plate-coated 6xHis huPD-L1, OD 450 nm. The procedure: as §3, §5
This is another data set of the same source.

Assay [11] deals with T1, PD-L1-His (Acro Cat PDL-H5229). In words: SPR (Biacore 4000), antibody captured on anti-human CM4 chip, PD-L1-His analyte, 37° C. How it is done:
as §1

Assay [12] has as its target T2, human PD-L1 expressed on cells. Nature of the assay: flow cytometry on unstimulated A431 cells (MFI against antibody concentration). How it is done: (§6) Approximately 2.5×10⁵ A431 squamous cell carcinoma cells were plated in a final volume of 50 μL FACS buffer (phosphate buffered saline, 1% fetal bovine serum, 5 mM EDTA) in 96-well plates. 50 μL 2× Zombie Violet (BioLegend) were added to each well, and the plates were incubated 20-30 minutes at room temperature, protected from light. After incubation, 150 μL FACS buffer were added to each well. The plates were centrifuged at 500×g for 5 minutes. The supernatant was removed, and the cell pellet were resuspended in 200 μL FACS buffer. The wash procedure was repeated for a total of 2-3 washes. […] After the cells were incubated with the primary anti-PD-L1 antibody 1 hour on ice, protected from light, 150 μL FACS buffer were added to each well. The plates were then centrifuged, the supernatant was removed, and the cells were resuspended in 250 μL FACS buffer three times. After the third wash, the cells were resuspended in 100 μL goat anti-human IgG-Alexa Fluor 488 secondary antibody, and incubated for 30 minutes on ice, protected from light. After 3 washes as previously described, the cells were resuspended in 200 μL FACS buffer. The cells were then analyzed using a CytoFLEX flow cytometer.

For assay [13], the target named is T5, human PD-L2 (RD Systems 9075-PL) (human, UniProt Q9BQ51 20-219).
T5 sequence (looked up): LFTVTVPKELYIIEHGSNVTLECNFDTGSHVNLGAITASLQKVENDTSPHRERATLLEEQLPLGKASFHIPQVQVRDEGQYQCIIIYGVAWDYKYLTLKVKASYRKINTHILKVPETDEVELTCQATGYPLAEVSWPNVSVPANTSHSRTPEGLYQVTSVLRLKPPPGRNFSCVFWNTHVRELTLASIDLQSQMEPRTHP
In words: ELISA, plate-coated human PD-L2 (1 µg/mL), OD 450 nm, B7 ligand specificity panel. The procedure: as §3, §4

Assay [14] concerns the target T1, PD-L1-His (Acro Cat PDL-H5229). Nature of the assay: SPR (Biacore 4000), antibody captured on anti-human CM4 chip, PD-L1-His analyte, 25° C. How it is done:
as §1

In assay [15] the target is T2, human PD-L1 expressed on cells. Nature of the assay: cell-based or functional assay. The source holds these as a separate data set.
For assay [16] the target is unchanged. Nature of the assay: flow cytometry, IFN-γ-stimulated BxPC3 cells, MFI (FITC). Background: In flow cytometry, cells or beads pass a laser one at a time.
Assay [17] has the same target. In words: flow cytometry, CHO-hPD-L1 cells, MFI (FITC).
Assay [18] shares this target. In words: flow cytometry on unstimulated A431 cells, 10 conjugate concentrations. The procedure: as §6
For assay [19] the target is unchanged. In words: flow cytometry, IFN-γ-stimulated A431 cells, MFI (FITC).
Assay [20] has the same target. In words: flow cytometry on unstimulated A431 cells, ratio of EC50 values. How it is done:
as §6

The term Kd denotes the free concentration of one partner at which half of the binding sites on the other are occupied at equilibrium, for simple one-to-one binding. Read a high Kd as weaker binding. Usually koff stands for the rate constant with which the complex falls apart. Read a high koff as a short-lived complex. In general, kon refers to a measure of how fast the partners come together. A high value points to faster complex formation. For orientation: EC50 means the concentration at which the effect is half-maximal. High values mean a less potent agent, low ones a more potent agent.

T4 sequence (Q9NZQ7 19-238): as the sequence (Q9NZQ7 other isoform, or with tags, fused parts or gaps) above, with T33A, S34A, N62S, Q68R, R82Q, L173F, A185T, I192T, L215H counted along it
T1 sequence (Q9NZQ7 19-238 limits assumed): as the sequence (Q9NZQ7 other isoform, or with tags, fused parts or gaps) above, with T33A, S34A, N62S, Q68R, R82Q, L173F, A185T, I192T, L215H counted along it
T2 sequence (Q9NZQ7 19-290): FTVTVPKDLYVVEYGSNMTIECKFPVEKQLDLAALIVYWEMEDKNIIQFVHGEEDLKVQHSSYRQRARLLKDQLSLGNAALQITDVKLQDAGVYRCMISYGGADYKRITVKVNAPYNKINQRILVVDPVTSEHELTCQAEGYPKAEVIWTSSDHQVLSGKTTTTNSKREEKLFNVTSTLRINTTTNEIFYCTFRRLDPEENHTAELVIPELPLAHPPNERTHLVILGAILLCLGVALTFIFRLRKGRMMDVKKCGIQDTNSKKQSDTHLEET

B1: 1P4-IR700 (antibody, V domains shown)
VH: QVQLVESGGGVVQPGRSLRLSCAASGFTFSNYGMHWVRQAPGKGLEWVSLILYDGSNKYYADSVKGRFTISRDNSKNTLYLQMNSLRAEDTAVYYCARDRVWLDVWGKGTTVTVSS
VL: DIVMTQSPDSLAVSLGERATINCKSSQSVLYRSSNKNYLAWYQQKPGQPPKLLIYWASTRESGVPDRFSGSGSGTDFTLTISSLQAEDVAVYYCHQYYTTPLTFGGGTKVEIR
modifications: IRDye 700DX (IR700) attached via NHS ester; sites not stated; IRDye 700DX (IR700) attached via NHS ester; sites not stated; DAR 2.9 per antibody
notes: also called 1P4-IR700 conjugate; anti-PD-L1-IR700 conjugate
For the molecule B1, the Kd in assay [1] amounted to 23 nM; in assay [7] it was 16 nM. Moreover, the koff in assay [1] was determined as 0.011 s⁻¹; in assay [7] it was 0.0056 s⁻¹. The figures for the kon in assay [1] and in assay [7] were 470000 M⁻¹ s⁻¹ and 350000 M⁻¹ s⁻¹, respectively. Besides, the “EC50 of luminescence (RLU), PD-1:PD-L1 Blockade Bioassay (PD-L1 aAPC/CHO-K1 cells with PD-1 Effector Jurkat NFAT-luciferase cells)” value in assay [2] turned out to be 0.855 µg/mL. In addition, the results for the EC50 (in the assay with 6xHis-tagged cyPD-L1 [3]; in assay [4]; with 6xHis-tagged huPD-L1 [6]) were 0.193 µg/mL, 0.133 µg/mL and 0.189 µg/mL, respectively. For the same molecule, the “EC50 of photoimmunotherapy-induced killing of A431 cells (Cell Tox Green, 128 J/cm^2)” value in assay [5] amounted to 0.103 µg/mL.

B2: 1P4 (antibody, V domains shown)
VH: B1 VH
VL: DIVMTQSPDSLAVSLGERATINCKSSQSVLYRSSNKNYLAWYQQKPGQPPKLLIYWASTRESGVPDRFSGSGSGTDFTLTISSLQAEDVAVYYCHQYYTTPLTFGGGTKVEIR
notes: Recombinant full-length human antibody expressed in CHO K1 GS KO cells, with wild-type human Fc; also called anti-PD-L1 antibody 1P4; Unconj; 1P4
Turning to B2, the EC50 is 0.478 µg/mL with 6xHis-tagged huPD-L1 [8]; 0.0306 µg/mL with 6xHis-tagged cyPD-L1 [9]; 0.0399 µg/mL with 6xHis-tagged huPD-L1 [10]; 0.0457 µg/mL in assay [4]; 0.0415 µg/mL in [12]; 5.76 µg/mL in [13]. Moreover, the “EC50 of luminescence (RLU), PD-1:PD-L1 Blockade Bioassay (PD-L1 aAPC/CHO-K1 cells with PD-1 Effector Jurkat NFAT-luciferase cells)” value in assay [2] is 0.25 µg/mL. The dissociation constant Kd in assay [11] is 27 nM; in assay [14] it was 18 nM. In addition, the off-rate constant (koff) in assay [11] was found to be 0.0097 s⁻¹; in [14] it was 0.0045 s⁻¹. For the same molecule, the on-rate (kon) in assay [11] stood at 360000 M⁻¹ s⁻¹; in assay [14], 250000 M⁻¹ s⁻¹.

B3: 1P9-IR700 (antibody, V domains shown)
VH: EVQLVESGGGLVQPGGSLRLSCAASGFTFSTYWMSWVRQAPGKGLEWVANIKQDGGERYYVDSVKGRFTISRDNAKSSLYLQMNSLRAEDTALYYCARLRLYSDYEDYWGQGTLVTVSS
VL: DIQMTQSPSSVSASVGDRVTITCRASQGISSWLAWYQQKPGKAPKLLIYSVSSLQSGVPSRFSGSGSGTDFTLTISSLQPEDSATYYCQQANSLPPTFGGGTKVEIK
modifications: IRDye 700DX (IR700) attached via NHS ester; sites not stated; IRDye 700DX (IR700) attached via NHS ester; sites not stated; DAR 2.5 per antibody
notes: also called 1P9-IR700 conjugate; anti-PD-L1-IR700 conjugate
Consider B3, for which the Kd was 0.97 nM in [1] and 0.26 nM in assay [7]. Also, the off-rate constant (koff) in [1] was found to be 0.00038 s⁻¹; in assay [7] it was 5.4e-05 s⁻¹. In addition, the kon in assay [1] stood at 390000 M⁻¹ s⁻¹; in assay [7], 210000 M⁻¹ s⁻¹. Also, the “EC50 of luminescence (RLU), PD-1:PD-L1 Blockade Bioassay (PD-L1 aAPC/CHO-K1 cells with PD-1 Effector Jurkat NFAT-luciferase cells)” value in [15] was found to be 0.161 µg/mL. In addition, the concentration for a half-maximal effect (EC50) with 6xHis-tagged cyPD-L1 [3] came out at 0.0542 µg/mL; in assay [4], 0.0156 µg/mL; in [16] it was 0.0439 µg/mL; in [17] it was 0.0151 µg/mL; in [18] it was 0.0129 µg/mL; in assay [19], 0.046 µg/mL. Also, in the assay with 6xHis-tagged huPD-L1 [6], the midpoint of the response, the EC50, lay at 0.0636 µg/mL. In [5], the “EC50 of photoimmunotherapy-induced killing of A431 cells (Cell Tox Green, 128 J/cm^2)” value was determined as 0.0124 µg/mL. For the same molecule, in assay [20], the “fold potency against avelumab-IR700” value is approximately 23 fold.
